What was measured:
[1] = target: VEGF-165 (R&D Systems) (human); assay: MSD receptor binding inhibition assay; VEGFR1 coated at […]; anti-VEGF molecule added 10 min before VEGF-165 (10 ng/ml final); 2 h room temperature; bound VEGF detected with biotinylated anti-VEGF and streptavidin sulfo-TAG
[2] = target: VEGF-165 (R&D Systems) (human); assay: MSD receptor binding inhibition assay; VEGFR2 coated at […]; anti-VEGF molecule added 10 min before VEGF-165 (10 ng/ml final); 2 h room temperature; bound VEGF detected with biotinylated anti-VEGF and streptavidin sulfo-TAG
Murine VEGF-A164 (mouse) = assay: MSD (meso scale discovery) plate binding assay; VEGF ligand coated at 2 μg/ml on MSD high bind plate; anti-VEGF molecule added in 0.1% BSA/PBS, 2 h room temperature; detection with sulfo-TAG anti-human IgG (Fc-specific); n = 3
[3] = target: Human VEGF_(1–165) (human); assay: as above
Human VEGF-A121 (human) = assay: as above
[4] = target: VEGF dual dAb in complex with human VEGF-165 (human); assay: SPR; ProteOn GLM chip; VEGF dual dAb alone or in complex with VEGF-165 immobilised by amine coupling; FcRn injected at 3.9-1000 nM; 25 °C, HBS-EP pH 6; equilibrium model
VEGF dual dAb (human) [5] = assay: as above
VEGF dual dAb (human) [6] = assay: SPR; Biacore T200, C1 chip; VEGF dual dAb captured on immobilised protein A (20 RU); VEGF injected at 0.03-32 nM (32 nM curves removed), 60 μl/min; 37 °C, HBS-EP; 1:1 model; triplicate
[7] = target: Human VEGF_(1–165) (human); assay: SEC-MALS; input proteins and complexes at input molar ratios 1:2, 2:1, 4:1 (dual dAb-VEGF) and 1:1, 1:2, 2:1, 4:1 (bevacizumab-VEGF); Superdex 200 column; PBS pH 7.4

Sequence of Aflibercept (Fc fusion) (chain): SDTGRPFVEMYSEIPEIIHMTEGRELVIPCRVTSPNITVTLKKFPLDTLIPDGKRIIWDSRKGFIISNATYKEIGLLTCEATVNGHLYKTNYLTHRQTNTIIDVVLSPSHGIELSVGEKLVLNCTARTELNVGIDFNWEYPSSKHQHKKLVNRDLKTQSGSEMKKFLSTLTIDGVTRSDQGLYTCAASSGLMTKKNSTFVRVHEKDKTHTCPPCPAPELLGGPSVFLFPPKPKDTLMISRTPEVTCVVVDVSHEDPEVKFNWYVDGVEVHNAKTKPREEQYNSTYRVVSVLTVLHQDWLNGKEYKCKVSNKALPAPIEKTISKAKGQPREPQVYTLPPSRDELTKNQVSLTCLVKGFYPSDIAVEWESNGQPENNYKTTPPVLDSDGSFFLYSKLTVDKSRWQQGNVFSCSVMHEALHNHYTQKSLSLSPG
Sequence of VEGF dual dAb (human) (heavy, as listed by the source, chain 1 of 2): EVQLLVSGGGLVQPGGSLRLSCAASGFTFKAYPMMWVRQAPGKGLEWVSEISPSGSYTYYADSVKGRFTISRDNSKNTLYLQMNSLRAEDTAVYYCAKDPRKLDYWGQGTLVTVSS
Sequence of VEGF dual dAb (human) (light, as listed by the source, chain 2 of 2): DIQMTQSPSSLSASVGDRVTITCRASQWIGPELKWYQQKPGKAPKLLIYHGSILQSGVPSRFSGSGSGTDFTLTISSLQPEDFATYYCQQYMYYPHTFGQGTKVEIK
Sequence of VEGF dual dAb in complex with human VEGF-165 (human) (heavy, as listed by the source, chain 1 of 2): as the sequence (heavy, as listed by the source, chain 1 of 2) above
Sequence of VEGF dual dAb in complex with human VEGF-165 (human) (light, as listed by the source, chain 2 of 2): as the sequence (light, as listed by the source, chain 2 of 2) above

| Substance | Kd (VEGF dual dAb (human) [6]) [nM] | koff (VEGF dual dAb (human) [6]) [s⁻¹] | kon (VEGF dual dAb (human) [6]) [M⁻¹ s⁻¹] | further results |
| --- | --- | --- | --- | --- |
| Aflibercept (Fc fusion) |  |  |  | IC50 [1]: 0.075 nM; IC50 [2]: 0.032 nM; EC50 (Murine VEGF-A164 (mouse)): 0.095 nM; EC50 [3]: 0.086 nM; EC50 (Human VEGF-A121 (human)): 0.317 nM |
| Human FcRn (from UniProt P55899 24-365; P61769 21-119) (receptor) |  |  |  | Kd [4]: 479 nM; Kd (VEGF dual dAb (human) [5]): 325 nM |
| Human VEGF_(1–165) (ligand) | 0.00717 | 4.76e-05 | 6.63e+06 | stoichiometry N [7]: 2 |

The next lines start with results.

| Kd (VEGF dual dAb (human) [6]) [nM] | koff (VEGF dual dAb (human) [6]) [s⁻¹] | kon (VEGF dual dAb (human) [6]) [M⁻¹ s⁻¹] | Substance | further results |
| --- | --- | --- | --- | --- |
| 0.00994 | 8.08e-05 | 8.13e+06 | Human VEGF-A165, E. coli expressed (ligand) |  |
| 0.0065 | 5.19e-05 | 8e+06 | Murine VEGF-A164 (ligand) |  |

— article PMC4786692
